B1: scFv(CH01) (scFv)
scFv: EVQLLESGGGLVQPGGSLRLSCAASGFTFSPYAMSWVRQAPGKGLEWVSAITGQGGVTYYADSVKGRFTISRDNSKNTLYLQMNSLRAEDTAVYYCAKISSFHFDYWGQGTLVTVSSGGGGSGGGGSGGGGEIVLTQSPGTLSLSPGERATLSCRASQSVSSHHLAWYQQKPGQAPRLLIYDASSRATGIPDRFSGSGSGTDFTLTISRLEPEDFAVYYCQQPRGAPTTFGQGTKVEIK
notes: First disclosed in PCT/EP2015/067309; also called anti-MMP3 antibody CH01
B2: scFv(CPR01) (scFv)
scFv: EVQLLESGGGLVQPGGSLRLSCAASGFTFSSYAMSWVRQAPGKGLEWVSAIKARGGLTYYADSVKGRFTISRDNSKNTLYLQMNSLRAEDTAVYYCAKGGAPFDYWGQGTLVTVSSGGGGSGGGGSGGGGSSELTQDPAVSVALGQTVRITCQGDSLRSYYASWYQQKPGQAPVLVIYGKNNRPSGIPDRFSGSSSGNTASLTITGAQAEDEADYYCNSSPLNRLAVVFGGGTKLTVLG
notes: Expressed in CHO.S cells as scFv

Key:
human MMP3 = human MMP3 (human, UniProt P08254 100-272); experiment: Biacore (SPR), scFv; set-up not described
human MMP3, sequence (P08254 100-272): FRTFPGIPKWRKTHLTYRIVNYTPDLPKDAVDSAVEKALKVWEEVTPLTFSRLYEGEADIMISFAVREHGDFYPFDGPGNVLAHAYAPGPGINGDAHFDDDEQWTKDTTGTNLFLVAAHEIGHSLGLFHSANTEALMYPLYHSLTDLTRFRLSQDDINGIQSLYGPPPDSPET

murine MMP3 = murine MMP3 (murine, UniProt P28862 100-272); experiment: Biacore (SPR), scFv; set-up not described
murine MMP3, sequence (P28862 100-272): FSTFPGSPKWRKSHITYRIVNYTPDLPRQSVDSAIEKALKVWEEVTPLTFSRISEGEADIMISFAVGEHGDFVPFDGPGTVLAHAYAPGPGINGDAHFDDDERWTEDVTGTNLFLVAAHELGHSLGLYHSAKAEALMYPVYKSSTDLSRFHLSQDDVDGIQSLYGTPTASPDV

[1] = molecular target: T1, D domain of human Tenascin-C (human, UniProt P24821 1622-1711, limits assumed); experiment: Biacore (SPR), scFv over CM5 chip coated with human tenascin-C D domain
T1 construct: domain: D domain; Coated on a CM5 chip; also called domain D of human Tenascin-C; human tenascin-C D domain
T1 sequence (looked up): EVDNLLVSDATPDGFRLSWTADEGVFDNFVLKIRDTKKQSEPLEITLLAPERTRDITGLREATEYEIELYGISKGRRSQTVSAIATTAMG
Experimental: CPR01 was analysed for antigen binding by Biacore using a CM5 chip coated with the human tenascin-C D domain. The flow rate for the Biacore analysis was set at 10 μL/min.

[2] = molecular target: T2, BCD domains of murine tenascin-C (murine, UniProt Q80YX1 1349-1620, limits assumed); experiment: Biacore (SPR), scFv on BCD domains of murine tenascin-C
T2 construct: domain: BCD domains; Coated on a CM5 chip; also called domain BCD of murine Tenascin-C
T2 sequence (looked up): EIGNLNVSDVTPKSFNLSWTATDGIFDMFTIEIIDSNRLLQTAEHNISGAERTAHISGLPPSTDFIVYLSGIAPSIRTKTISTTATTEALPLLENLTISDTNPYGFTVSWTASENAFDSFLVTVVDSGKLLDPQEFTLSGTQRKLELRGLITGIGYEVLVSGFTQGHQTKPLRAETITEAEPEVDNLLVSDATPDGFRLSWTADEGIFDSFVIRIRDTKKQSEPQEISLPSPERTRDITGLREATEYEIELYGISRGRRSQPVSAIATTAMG

Row | Kd (human MMP3) | koff (human MMP3) | kon (human MMP3) | Kd (murine MMP3) | koff (murine MMP3) | kon (murine MMP3) | Kd [1] | koff [1] | kon [1] | Kd [2] | koff [2] | kon [2] | Binder
1 | 28 nM | 0.0047 s⁻¹ | 170000 M⁻¹ s⁻¹ | 29 nM | 0.0025 s⁻¹ | 80000 M⁻¹ s⁻¹ | – | – | – | – | – | – | B1
2 | – | – | – | – | – | – | 70 nM | 0.011 s⁻¹ | 151000 M⁻¹ s⁻¹ | 29 nM | 0.007 s⁻¹ | 240000 M⁻¹ s⁻¹ | B2
